According to US20260242735A1 (UNIVERSIT T BASEL, published 2026):

B1: Refmab #3 (antibody, V domains shown)
VH: QVQLVQSGAEVKKPGSSVKVSCKASGYTFTDYNMHWVRQAPGQGLEWIGYIYPYNGGTGYNQKFKSKATITADESTNTAYMELSSLRSEDTAVYYCARGRPAMDYWGQGTLVTVSS
VL: DIQMTQSPSSLSASVGDRVTITCRASESVDNYGISFMNWFQQKPGKAPKLLIYAASNQGSGVPSRFSGSGSGTDFTLTISSLQPDDFATYYCQQSKEVPWTFGQGTKVEIK
notes: Full-length format is human IgG1 Fc silent (PG-LALA); The alanine scan used IgG or Fab
B2: Refmab #4 (antibody, V domains shown)
VH: QVQLVQSGAEVKKPGESVKVSCKASGYTFTNYGMNWVKQAPGQGLEWMGWINTYTGEPTYADKFQGRVTMTTDTSTSTAYMEIRNLGGDDTAVYYCARWSWSDGYYVYFDYWGQGTSVTVSS
VL: DIVMTQSPDSLTVSLGERTTINCKSSQSVLDSSTNKNSLAWYQQKPGQPPKLLLSWASTRESGIPDRFSGSGSGTDFTLTIDSPQPEDSATYYCQQSAHFPITFGQGTRLEIK
notes: as for B1
B3: Refmab #5 (antibody, V domains shown)
VH: QVQLVQSGAEVKKPGASVKVSCKASGYTFTNYDINWVRQAPGQGLEWIGWIYPGDGSTKYNEKFKAKATLTADTSTSTAYMELRSLRSDDTAVYYCASGYEDAMDYWGQGTTVTVSS
VL: DIQMTQSPSSLSASVGDRVTINCKASQDINSYLSWFQQKPGKAPKTLIYRANRLVDGVPSRFSGSGSGQDYTLTISSLQPEDFATYYCLQYDEFPLTFGGGTKVEIK
notes: Full-length format is human IgG1 Fc silent (PG-LALA); also made as Fab; The alanine scan used IgG or Fab
B4: Refmab #1 (antibody, human IgG1, V domains shown)
VH: EVQLVQSGAEVKKPGSSVKVSCKASGYTITDSNIHWVRQAPGQSLEWIGYIYPYNGGTDYNQKFKNRATLTVDNPTNTAYMELSSLRSEDTAFYYCVNGNPWLAYWGQGTLVTVSS
VL: DIQLTQSPSTLSASVGDRVTITCRASESLDNYGIRFLTWFQQKPGKAPKLLMYAASNQGSGVPSRFSGSGSGTEFTLTISSLQPDDFATYYCQQTKEVPWSFGQGTKVEVK
notes: Tested in IgG format; human IgG1 (Absolute Antibody hP67.6, Cat. No. Ab00283-10.0); also called hP67.6
B5: Refmab #2 (antibody, human IgG1, V domains shown)
VH: QVQLVQSGAEVKKPGSSVKVSCKASGGTFSDYAISWVRQAPGQGLEWMGRIIPILGVADYAQKFQGRVTITADKSTRTAYMELSSLRSEDTAVYYCARNWADAFDIWGQGTMVTVSS
VL: DIQLTQSPSSLSASVGDRVTITCRASQGISSVLAWYQQKPGKAPKLLIYDASSLESGVPSRFSGSGSGTDFTLTISSLQPEDFATYYCQQFDSSITFGQGTKLEIK
notes: Tested in IgG format; human IgG1 Fc silent (PG-LALA)
B6: Refmab #3 (antibody, human IgG1, V domains shown)
VH: B1 VH
VL: B1 VL
notes: as for B5
B7: Refmab #4 (antibody, human IgG1, V domains shown)
VH: B2 VH
VL: B2 VL
notes: as for B5

Columns and labels:
[1] = target: human CD33 C41A (human, UniProt P20138 18-364); test: alanine scan, flow cytometry;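 further: HEK293-T cells transiently expressing single-residue alanine mutants of CD33 (alanine swapped to serine), antibody binding read by fluorescence in duplicate, background-subtracted, expressed relative to wild-type CD33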
[2] = target: human CD33 Q204A (human, UniProt P20138 18-364); test: alanine scan, flow cytometry;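 further: HEK293-T cells transiently expressing single-residue alanine mutants of CD33 (alanine swapped to serine), antibody binding read by fluorescence in duplicate, background-subtracted, expressed relative to wild-type CD33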
[3] = target: human CD33 T208A (human, UniProt P20138 18-364); test: alanine scan, flow cytometry;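 further: HEK293-T cells transiently expressing single-residue alanine mutants of CD33 (alanine swapped to serine), antibody binding read by fluorescence in duplicate, background-subtracted, expressed relative to wild-type CD33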
[4] = target: human CD33 V214A (human, UniProt P20138 18-364); test: alanine scan, flow cytometry;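 further: HEK293-T cells transiently expressing single-residue alanine mutants of CD33 (alanine swapped to serine), antibody binding read by fluorescence in duplicate, background-subtracted, expressed relative to wild-type CD33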
[5] = target: human CD33 F216A (human, UniProt P20138 18-364); test: alanine scan, flow cytometry
[6] = target: human CD33 A217S (human, UniProt P20138 18-364); test: alanine scan, flow cytometry
[7] = target: human CD33 A219S (human, UniProt P20138 18-364); test: alanine scan, flow cytometry
[8] = target: human CD33 L229A (human, UniProt P20138 18-364); test: alanine scan, flow cytometry
[9] = target: human CD33 N230A (human, UniProt P20138 18-364); test: alanine scan, flow cytometry
[10] = target: human CD33 V231A (human, UniProt P20138 18-364); test: alanine scan, flow cytometry
[11] = target: human CD33 V234A (human, UniProt P20138 18-364); test: alanine scan, flow cytometry
[12] = target: human CD33 N237A (human, UniProt P20138 18-364); test: alanine scan, flow cytometry
[13] = target: human CD33 T240A (human, UniProt P20138 18-364); test: alanine scan, flow cytometry
[14] = target: human CD33 I242A (human, UniProt P20138 18-364); test: alanine scan, flow cytometry
[15] = target: human CD33 G245A (human, UniProt P20138 18-364); test: alanine scan, flow cytometry
[16] = target: human CD33 G249A (human, UniProt P20138 18-364); test: alanine scan, flow cytometry
[17] = target: human CD33 K250A (human, UniProt P20138 18-364); test: alanine scan, flow cytometry
[18] = target: human CD33 E252A (human, UniProt P20138 18-364); test: alanine scan, flow cytometry
[19] = target: human CD33 H259A (human, UniProt P20138 18-364); test: alanine scan, flow cytometry
[20] = target: human CD33 N20S (human, UniProt P20138 18-364); test: flow cytometry, mutant on cells, IgG
[21] = target: human CD33 N20Q (human, UniProt P20138 18-364); test: flow cytometry, mutant on cells, IgG
[22] = target: human CD33 N20E (human, UniProt P20138 18-364); test: flow cytometry, mutant on cells, IgG
[23] = target: human CD33 F21V (human, UniProt P20138 18-364); test: flow cytometry, mutant on cells, IgG
[24] = target: human CD33 W22T (human, UniProt P20138 18-364); test: flow cytometry, mutant on cells, IgG
[25] = target: human CD33 W22L (human, UniProt P20138 18-364); test: flow cytometry, mutant on cells, IgG
[26] = target: human CD33 Q24T (human, UniProt P20138 18-364); test: flow cytometry, mutant on cells, IgG
[27] = target: human CD33 Q24H (human, UniProt P20138 18-364); test: flow cytometry, mutant on cells, IgG
[28] = target: human CD33 Q24E (human, UniProt P20138 18-364); test: flow cytometry, mutant on cells, IgG
[29] = target: human CD33 V25M (human, UniProt P20138 18-364); test: flow cytometry, mutant on cells, IgG
[30] = target: human CD33 T42N (human, UniProt P20138 18-364); test: flow cytometry, mutant on cells, IgG
[31] = target: human CD33 T42P (human, UniProt P20138 18-364); test: flow cytometry, mutant on cells, IgG
[32] = target: human CD33 F44V (human, UniProt P20138 18-364); test: flow cytometry, mutant on cells, IgG
[33] = target: human CD33 F44L (human, UniProt P20138 18-364); test: flow cytometry, mutant on cells, IgG
[34] = target: human CD33 F44P (human, UniProt P20138 18-364); test: flow cytometry, mutant on cells, IgG
[35] = target: human CD33 F44D (human, UniProt P20138 18-364); test: flow cytometry, mutant on cells, IgG
[36] = target: human CD33 P46L (human, UniProt P20138 18-364); test: flow cytometry, mutant on cells, IgG
[37] = target: human CD33 P19L (human, UniProt P20138 18-364); test: flow cytometry, mutant on cells, IgG
[38] = target: human CD33 I47V (human, UniProt P20138 18-364); test: flow cytometry, mutant on cells, IgG

Chain of human CD33 F44D (P20138 18-364 F44D limits assumed): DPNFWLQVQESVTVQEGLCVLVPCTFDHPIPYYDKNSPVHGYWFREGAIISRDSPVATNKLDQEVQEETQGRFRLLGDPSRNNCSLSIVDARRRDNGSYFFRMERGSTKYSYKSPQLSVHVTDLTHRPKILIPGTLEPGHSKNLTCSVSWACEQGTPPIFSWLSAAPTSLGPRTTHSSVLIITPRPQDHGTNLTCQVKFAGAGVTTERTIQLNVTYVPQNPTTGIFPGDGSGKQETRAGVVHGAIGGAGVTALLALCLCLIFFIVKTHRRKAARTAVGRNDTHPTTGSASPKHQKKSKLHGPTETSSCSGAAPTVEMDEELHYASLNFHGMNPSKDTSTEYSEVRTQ
Chain of human CD33 F21V (P20138 18-364 F21V limits assumed): as the sequence (P20138 18-364 F44D limits assumed) above, with F4V, D27F counted along it
Chain of human CD33 W22T (P20138 18-364 W22T limits assumed): as the sequence (P20138 18-364 F44D limits assumed) above, with W5T, D27F counted along it
Chain of human CD33 Q24E (P20138 18-364 Q24E limits assumed): as the sequence (P20138 18-364 F44D limits assumed) above, with Q7E, D27F counted along it
Chain of human CD33 W22L (P20138 18-364 W22L limits assumed): as the sequence (P20138 18-364 F44D limits assumed) above, with W5L, D27F counted along it
Chain of human CD33 F44V (P20138 18-364 F44V limits assumed): as the sequence (P20138 18-364 F44D limits assumed) above, with D27V counted along it
Chain of human CD33 N20Q (P20138 18-364 N20Q limits assumed): as the sequence (P20138 18-364 F44D limits assumed) above, with N3Q, D27F counted along it
Chain of human CD33 Q24T (P20138 18-364 Q24T limits assumed): as the sequence (P20138 18-364 F44D limits assumed) above, with Q7T, D27F counted along it
Chain of human CD33 F44L (P20138 18-364 F44L limits assumed): as the sequence (P20138 18-364 F44D limits assumed) above, with D27L counted along it
Chain of human CD33 T42P (P20138 18-364 T42P limits assumed): as the sequence (P20138 18-364 F44D limits assumed) above, with T25P, D27F counted along it
Chain of human CD33 P19L (P20138 18-364 P19L limits assumed): as the sequence (P20138 18-364 F44D limits assumed) above, with P2L, D27F counted along it
Chain of human CD33 F44P (P20138 18-364 F44P limits assumed): as the sequence (P20138 18-364 F44D limits assumed) above, with D27P counted along it
Chain of human CD33 Q24H (P20138 18-364 Q24H limits assumed): as the sequence (P20138 18-364 F44D limits assumed) above, with Q7H, D27F counted along it
Chain of human CD33 N20S (P20138 18-364 N20S limits assumed): as the sequence (P20138 18-364 F44D limits assumed) above, with N3S, D27F counted along it

Binder	Mean % WT Binding [20] [% WT binding]	Mean % WT Binding [21] [% WT binding]	Mean % WT Binding [22] [% WT binding]	Mean % WT Binding [23] [% WT binding]	Mean % WT Binding [24] [% WT binding]	Mean % WT Binding [25] [% WT binding]	Mean % WT Binding [26] [% WT binding]	Mean % WT Binding [27] [% WT binding]	Mean % WT Binding [28] [% WT binding]	Mean % WT Binding [29] [% WT binding]	Mean % WT Binding [30] [% WT binding]	Mean % WT Binding [31] [% WT binding]	Mean % WT Binding [32] [% WT binding]	Mean % WT Binding [33] [% WT binding]	Mean % WT Binding [34] [% WT binding]	Mean % WT Binding [35] [% WT binding]	Mean % WT Binding [36] [% WT binding]	Mean % WT Binding [37] [% WT binding]	Mean % WT Binding [38] [% WT binding]	also measured
B1	–	–	–	–	–	–	–	–	–	–	–	–	–	–	–	–	–	–	–	Mean % WT Binding [1]: 30.7 % WT
B2	–	–	–	–	–	–	–	–	–	–	–	–	–	–	–	–	–	–	–	Mean % WT Binding [1]: 9.8 % WT
B3	–	–	–	–	–	–	–	–	–	–	–	–	–	–	–	–	–	–	–	Mean % WT Binding [2]: 103 % WT binding; Mean % WT Binding [3]: 100 % WT binding; Mean % WT Binding [4]: 127 % WT binding; Mean % WT Binding [5]: 104 % WT binding; Mean % WT Binding [6]: 121 % WT binding; Mean % WT Binding [7]: 93.7 % WT binding; Mean % WT Binding [8]: 106 % WT binding; Mean % WT Binding [9]: 105 % WT binding; Mean % WT Binding [10]: 88.2 % WT binding; Mean % WT Binding [11]: 115 % WT binding; Mean % WT Binding [12]: 91.8 % WT binding; Mean % WT Binding [13]: 96.9 % WT binding; Mean % WT Binding [14]: 81.8 % WT binding; Mean % WT Binding [15]: 110 % WT binding; Mean % WT Binding [16]: 105 % WT binding; Mean % WT Binding [17]: 85.7 % WT binding; Mean % WT Binding [18]: 114 % WT binding; Mean % WT Binding [19]: 94.5 % WT binding
B4	45.5	2.8	0.3	1.5	6.2	45.8	81.4	95.3	17.1	97.3	99.4	14.6	99.5	112	37.1	98.9	28.9	91.6	112	–
B5	124	125	120	117	103	110	95.2	101	63.7	83	98.2	12.7	2.3	–	0.4	2	93.8	111	97.2	–
B6	4.6	3.4	0.5	0.7	1.3	1.5	3.9	7.1	0.8	90.4	95.5	18.6	101	80	2	1.2	0.7	117	100	–
B7	91.7	99.4	100	118	103	108	97.2	93.2	69.7	81.1	101	21.6	96.6	100	104	110	96.3	101	99	–
